# PMC6323126 (2019)
# B1: SIKE1 (recombinant, limits not stated) [human] / SLMAP (recombinant, limits not stated for the experiment) [human] (parent complex)
# chain 1: MSCTIEKILTDAKTLLERLREHDAAAESLVDQSAALHRRVAAMREAGTALPDQYQEDASDMKDMSKYKPHILLSQENTQIRDLQQENRELWISLEEHQDALELIMSKYRKQMLQLMVAKKAVDAEPVLKAHQSHSAEIESQIDRICEMGEVMRKAVQVDDDQFCKIQEKLAQLELENKELRELLSISSESLQARKENSMDTASQAIK
# chain 2: YSQELFQLSQYLQEALHREQMLEQKLATLQRLLAITQEASDTSWQALIDEDRLLSRLEVMGNQLQACSKNQTEDSLRKELIALQEDKHNYETTAKESLRRVLQEKIEVVRKLSEVERSLSNTEDECTHLKEMNERTQEELRELANKYNGAVNEIKDLSDKLKVAEGKQEEIQQKGQAEKKELQHKIDEMEEKEQELQAKIEALQADNDFTNERLTALQVRLEHLQEKTLKECSSLEHLLSKSGGDCTFIHQFIECQKKLIVEGHLTKAVEETKLSKENQTRAKESDFSDTLSPSKEKSSDDTTDAQMDEQDLNEPLAKVSLLKDDLQGAQSEIEAKQEIQHLRKELIEAQELARTSKQKCFELQALLEEERKAYRNQVEESTKQIQVLQAQLQRLHIDTENLREEKDSEITSTRDELLSARDEILLLHQAAAKVASERDTDIASLQEELKKVRAELERWRKAASEYEKEITSLQNSFQLRCQQCEDQQREEATRLQGELEKLRKEWNALETECHSLKRENVLLSSELQRQEKELHNSQKQSLELTSDLSILQMSRKELENQVGSLKEQHLRDSADLKTLLSKAENQAKDVQKEYEKTQTVLSELKLKFEMTEQEKQSITDELKQCKNNLKLLREKGNNKP
# Variants of: B1
# Assay: BLI; read at the end of association (about 360 s); parent: 0.13; read off a plot
row,Variant,response
1,chain 1 MSCTIEKILTDAKTDLERLREHDAAAESLVDQSAALHRRVAAMREAGTALPDQYQEDASDMKDMSKYKPHILLSQENTQIRDLQQENRELWISLEEHQDALELIMSKYRKQMLQLMVAKKAVDAEPVLKAHQSHSAEIESQIDRICEMGEVMRKAVQVDDDQFCKIQEKLAQLELENKELRELLSISSESLQARKENSMDTASQAIK [chain 1 L15D],~0.045 nm
2,"chain 1 MSCTIEKILTDAKTDLERDREHDAAAESLVDQSAADHRRVAAEREAGTALPDQYQEDASDMKDMSKYKPHILLSQENTQIRDLQQENRELWISLEEHQDALELIMSKYRKQMLQLMVAKKAVDAEPVLKAHQSHSAEIESQIDRICEMGEVMRKAVQVDDDQFCKIQEKLAQLELENKELRELLSISSESLQARKENSMDTASQAIK [chain 1 L15D, chain 1 L19D, chain 1 L36D, chain 1 M43E]",~0.02 nm

# Results, then the variant that gave them:
row,response,Variant
1,~0.05 nm,chain 1 MSCTIEKILTDAKTLLERLREHDAAAESLVDQSAALHRRVAAEREAGTALPDQYQEDASDMKDMSKYKPHILLSQENTQIRDLQQENRELWISLEEHQDALELIMSKYRKQMLQLMVAKKAVDAEPVLKAHQSHSAEIESQIDRICEMGEVMRKAVQVDDDQFCKIQEKLAQLELENKELRELLSISSESLQARKENSMDTASQAIK [chain 1 M43E]
2,~0.045 nm,chain 1 MSCTIEKILTDAKTLLERDREHDAAAESLVDQSAALHRRVAAMREAGTALPDQYQEDASDMKDMSKYKPHILLSQENTQIRDLQQENRELWISLEEHQDALELIMSKYRKQMLQLMVAKKAVDAEPVLKAHQSHSAEIESQIDRICEMGEVMRKAVQVDDDQFCKIQEKLAQLELENKELRELLSISSESLQARKENSMDTASQAIK [chain 1 L19D]
3,~0 nm,chain 1 MSCTIEKILTDAKTLLERLREHDAAAESLVDQSAADHRRVAAMREAGTALPDQYQEDASDMKDMSKYKPHILLSQENTQIRDLQQENRELWISLEEHQDALELIMSKYRKQMLQLMVAKKAVDAEPVLKAHQSHSAEIESQIDRICEMGEVMRKAVQVDDDQFCKIQEKLAQLELENKELRELLSISSESLQARKENSMDTASQAIK [chain 1 L36D]
